Residue numbers refer to the chain shown, from its start.

The labels stand for the following.
B1: anti-MIF ISVD E5 (VHH)
VHH: EVQLVESGGGLVHAGGSLRLSCAASGRTFSSYFMGWFRQAPGKAREFVANINFSGGTTVYASSVKGRFTISRDNSKNTVYLQMNSVKPEDTAVYYCVARGLTQDYDYWGQGTQVTVSS
notes: Family V. Expressed from pAX100, purified by IMAC; also called Nb E5
B2: anti-MIF ISVD H9 (VHH)
VHH: B1 VHH with F29S, S31T, M83L, V97S, T102N, D104E, Y107F
notes: Family V. Expressed from pAX100, purified by IMAC
B3: anti-MIF ISVD E10 (VHH)
VHH: EVQLVESGGGSVQAGDSLRLSCAASGRTLSNSIMGWFRQAPGKEREFVANINWSGTSRLYADSVKGRFTISRDNTKSTVYLQMNSLKPEDTAIYYCAARSSTMSATDYWGQGTQVTVSS
notes: Family VII; Monovalent llama VHH expressed in E. coli from pAX100 and purified by IMAC (His-Trap) and gel filtration; also called Nb E10; monovalent E10
B4: anti-MIF ISVD B5 (VHH)
VHH: EVQLVESGGGLVQAGGSLRLSCAASGRSFSNYIMGWFRQAPGKEREFVANISWNYGTTFYADSVKGRFTISGDSAKNTVYLQMTSLKPEDTAVYYCAARPVRGGRNFDYWGQGTQVTVSS
notes: Family I. Expressed from pAX100, purified by IMAC
B5: anti-MIF ISVD D4 (VHH)
VHH: KVQLVESGGGLVQDGGSLRLSCAASGRTASIQVMGWFRQAPGKEREFVGNIGWNYGLTLYPDSVKGRFTISRDNAKNTVYLQMNNLKPEDTAVYYCAARIGTTTYDYWGQGTQVTVSS
notes: Family III; Expressed from pAX100, purified by IMAC
B6: anti-MIF ISVD D2 (VHH)
VHH: B5 VHH with K1E, Q32H, V33T, K43Q, E46G, P61A, T104P
notes: as for B5
B7: anti-MIF ISVD A2 (VHH)
VHH: B5 VHH with K1E, P61A, S63P, T103I
notes: as for B5
B8: anti-MIF ISVD D12 (VHH)
VHH: EVQLVESGGGLVQAGGSLRLSCAASGRTISSYIVGWFRQAPGKEREFVANIGWSGSMPLYADSVKGRFTIFRDNAKNTVYLEMNKLKPEDTAVYYCAARGAGQLTNDYWGQGTQVTVSS
notes: Family VI; Expressed from pAX100, purified by IMAC
B9: anti-MIF ISVD C10 (VHH)
VHH: EVQLVESGGGLVQAGGSLRLSCAASGRTSSIVAIGWFRQAPGKEREFVSNIGWKFGSTVYVDSVKGRFTISKDNAKNTVYLQMNSLKPEDTAVYRCAARSDGRVYDSWGQGTQVTVSS
notes: Family II; Expressed from pAX100, purified by IMAC
B10: anti-MIF ISVD H5 (VHH)
VHH: EVQLVESGGGLVQPGGSLRLSCVASGFTFRTYAMSWVRQAPGKGSEWVSTINNGGGVTGYADSVEGRFTISRDNAKNTLYLQMNSLKPEDTAVYYCAKGTSRGQGTQVTVSS
notes: Family IV; Expressed from pAX100, purified by IMAC
B11: anti-MIF ISVD F10 (VHH)
VHH: B5 VHH with K1E, D73G, T78A
notes: as for B5

T1 sequence (P14174 2-115): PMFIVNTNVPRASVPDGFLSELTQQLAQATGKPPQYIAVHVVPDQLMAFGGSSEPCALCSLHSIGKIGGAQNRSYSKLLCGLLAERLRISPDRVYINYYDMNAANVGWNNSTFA

The first test addresses T1, recombinant human Macrophage Migration Inhibitory Factor (MIF 2-115) (human, UniProt P14174 2-115).
T1 construct: rhMIF bought from R&D Systems; The background describes MIF as a homotrimer but also as monomer, dimer or higher oligomers; In the cell assays (THP-1, human PBMC) the MIF is the cells' own; also called rhMIF; human MIF
Briefly: SPR (BIAcore T200), rhMIF immobilised on CM5 chip, 1:1 Langmuir model. As for the experimental part: Surface plasmon resonance (SPR) experiments were performed on a BIAcore T200 system (GE Healthcare). Recombinant mouse MIF (rmMIF) or rhMIF (R&D systems) was immobilized on a CM5 chip (GE Healthcare). Briefly, the carboxylated dextran matrix was activated by injection of 0.2 M N-ethyl-N′-(3-[…]) carbodiimide (EDC) and 0.05 M N-hydroxysuccinimide (NHS) at a flow rate of 5 μl/min for 7 min. A rmMIF solution of 5 μg/ml prepared in coupling buffer (50 mM sodium acetate pH 4.0) was subsequently injected until 200 R.U. was immobilised. Next, the surface immobilisation was blocked by injection of 1 M ethanolamine hydrochloride for 7 min. As a reference, the surface in another flow cell was used and treated only with EDC, NHS, and ethanolamine. Data for the rmMIF-ISVD interaction were collected in the format of a kinetic titration (27). […] Analyte injections were performed with association phases of 180 s and a dissociation phase of 600 s. This was followed by 5 pulses of 15 μl regeneration buffer (HBS+100 mM NaOH). Prior to data analysis, reference and zero concentration data were subtracted from the sensorgrams. The data were analyzed with a 1:1 Langmuir binding model (27). Data for the rhMIF-ISVD interaction were collected as described elsewhere (28) and analyzed with a 1:1 Langmuir binding model.
On the technique in general: In SPR one partner is held on a chip, and binding of the other changes the refractive index at the surface.
The term Kd denotes a measure of binding affinity in units of concentration. Consider B1, for which the Kd was 9.41 nM. Turning to B2, the Kd is 80.3 nM. For B3, the Kd is 64.5 nM. For the molecule B4, the Kd is 37.8 nM. B5: the dissociation constant (Kd) is 35 nM. For the molecule B6, the Kd was found to be 16.5 nM.

As for B7, the Kd was found to be 2.96 nM. Regarding B8, the Kd is 166 nM. In the case of B9, the Kd is 41.2 nM. Same read-out and setting: the value for B10 was 27.5 nM.

For a further test, the target named is T1, recombinant human Macrophage Migration …. Briefly: SPR (summary in the discussion).
Take B11: the binding result is “binds”.

Source of the values: patent US20190309056A1 (VIB VZW, published 2019).
